For one substance, ELISA reading results are on record in patent US20160304625A1.

In the assay the target is mIgM proximal domain peptide conjugated to keyhole limpet hemocyanin (human). In words: ELISA direct binding, mIgM-PD-KLH.

Substance Control mAb (antibody) had an ELISA reading of 0.1.
